Molecular target: Growth arrest specific 6 (Gas6), soluble, His-tagged (Homo sapiens, UniProt Q14393)
Test: flow cytometry on cells

Chain of Growth arrest specific 6 (Gas6), soluble, His-tagged (Q14393 31-678): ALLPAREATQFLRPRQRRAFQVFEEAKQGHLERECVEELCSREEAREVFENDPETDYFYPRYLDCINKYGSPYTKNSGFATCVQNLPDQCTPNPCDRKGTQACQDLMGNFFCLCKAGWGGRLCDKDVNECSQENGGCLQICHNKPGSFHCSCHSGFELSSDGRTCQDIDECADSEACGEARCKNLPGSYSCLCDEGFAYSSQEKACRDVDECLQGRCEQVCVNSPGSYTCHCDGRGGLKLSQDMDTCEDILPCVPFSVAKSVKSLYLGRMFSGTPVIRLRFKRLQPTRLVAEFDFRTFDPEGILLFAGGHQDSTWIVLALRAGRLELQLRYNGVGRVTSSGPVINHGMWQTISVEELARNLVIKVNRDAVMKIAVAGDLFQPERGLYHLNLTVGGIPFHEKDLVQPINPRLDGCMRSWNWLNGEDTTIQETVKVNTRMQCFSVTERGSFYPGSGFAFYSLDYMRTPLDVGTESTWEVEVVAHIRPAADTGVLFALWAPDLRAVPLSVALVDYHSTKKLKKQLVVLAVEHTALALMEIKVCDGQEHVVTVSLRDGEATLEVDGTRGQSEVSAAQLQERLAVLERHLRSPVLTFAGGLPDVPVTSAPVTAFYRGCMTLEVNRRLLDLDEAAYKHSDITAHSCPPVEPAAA

- Kd: 0.13 µM
B1: anti-Gas6 scFv identified by μSCALE from a naïve yeast-displayed scFv library (scFv, V domains shown)
VH: EVQLVESGGGLVQPGGSLRLSCAASGFNISYGGSYIHWVRQAPGKGLEWVASIYPGGGYTYYADSVKGRFTISADTSKNTAYLQMNSLRAEDTAVYYCARTVRGSKKPYFSGWAMDYWGQGTLVTVSS
VL: DIQMTQSPSSLSASVGDRVTITCRASQYGGYGGVAWYQQKPGKAPKLLIYYASSLYSGVPSRFSGSRSGTDFTLTISSLQPEDFATYYCQQWWGYPITFGQGTKVEIK
